Data reported in patent US7645871B2, “Tumor inhibition by modulating sprouty expression of activity” (Michigan State University, priority 2005, dated 2010).

Assays:
[1] = test system: PH3MT cells; experiment: AG1478 inhibitor study, cell growth in 0.1% serum; assay type: cell-based, human
Procedure: For AG1478 inhibitor studies, cells were plated at a density of 5,000 cells per 60 mm-diameter dish in medium containing 0.1% serum, and were allowed to grow in the presence or absence of AG1478 at a concentration of 6 μM. Cell growth was monitored by measuring the number of cells every two days. Each experimental repetition included at least two replicates for each cell strain analyzed.
The activation of Ras oncogenes enables cellular growth in the absence of exogenous growth factors (Medema et al. (1993) Crit. Rev. Oncog. 4; Shields et al. (2000) Trends Cell. Biol. 10: 147-154). To determine if the activity of EGFR is necessary for the growth factor independence of H-Ras-transformed cells, measurements were made to determine the ability of PH3MT cells to grow in the presence of the AG1478 inhibitor, a specific inhibitor of EGFR tyrosine kinase activity (Levitzki et al. (1995) Science 267:1782-1788).

[2] = test system: HRas-transformed cells (PH3MT); experiment: UV-induced apoptosis assay (AnnexinV-FITC, flow cytometry); assay type: cell-based, human; details: Ras-transformed cells treated with AG1478
Procedure: Apoptosis was detected by staining the cells with AnnexinV-FITC (BD Biosciences, San Jose, Calif.) according to manufacturer's recommendations. Briefly, cells were plated at a density of 2×10^5 cells/60 mm-dish. 16 hours after plating, the cells were irradiated with UV at a dose of 30-60 J/m^2 and incubated at 37° C. under normal culture conditions for varying time periods. Subsequently, the cells were collected, washed twice with AnnexinV binding buffer and incubated with AnnexinV-FITC at room temperature for 15 mins. The cells were also stained with propidium iodide (PI) to distinguish between live and dead cells. AnnexinV-FITC positive cells were determined by flow cytometry under standard conditions. Cells that stained positively for AnnexinV were considered apoptotic, while cells that were positive for both annexinV and PI were not considered apoptotic. All experiments were repeated at least three times. Ras protects NIH3T3 fibroblasts from apoptosis induced by DNA-damage (Franke et al. (2003) Oncogene 22:8983-98). Experiments were conducted to determine whether this effect was produced in an H-Ras-transformed cell strain (PH3MT), which has a higher expression of Spry2 compared to its parental cell strain (MSU-1.1) (FIG. 10A). In these experiments, both MSU-1.1 and PH3MT cells were plated at a density of 2×10^5 cells per dish and allowed to grow overnight. […]

[3] = test system: ERK; experiment: EGF-induced activation of ERK (pERK Western blot); assay type: cell-based, human; details: serum starved, EGF 100 ng/ml; vs scrambled RNAi strain PH3MT-SC
Procedure: Whole cell lysates were prepared as described in Lou et al. (2005) Cancer Res. 65:1007-1017. The protein content was quantified with Coomassie protein reagent from Pierce (Rockford, Ill.). Whole cell lysate (50 μg) was separated by SDS-PAGE. The protein was transferred to polyvinylidene fluoride membrane (Millipore, Billerica, Mass.), and immunoblotting was carried out using standard techniques. The signal was detected with the SuperSignal® reagent (Pierce). Antibodies against EGFR, ERK, pERK, c-Cbl, and H-Ras were purchased from Santa Cruz Biotechnology, Inc. (Santa Cruz, Calif.); Sprouty2 from Calbiochem (San Diego, Calif.); Pan-Ras from Cytoskeleton, Inc. (Denver, Colo.) and Ku80 from Serotec (Raleigh, N.C.). The Ku80 protein expression was used as a loading control.
To determine if the expression of Sprouty2 in PH3MT cells was associated with an increase in the activation of the RAS/MAPK cascade, EGF-induced activation of ERK was examined by Western blotting with a phosphorylation-specific antibody.

[4] = test system: PH3MT cells; experiment: Tumorigenicity assay in athymic mice; assay type: in vivo; details: one million cells per site s.c., at least 6 months
Procedure: Cells were assayed for their ability to form tumors in athymic mice as described in Lou et al. (2005) Cancer Res. 65:1007-1017. The mice were examined weekly for tumor growth, and the tumors were removed when they reached 1 cm in diameter. In the absence of tumor formation six months after the injection, the mice were sacrificed.
When these same cell strains were compared for their ability to form tumors in athymic mice (Table 1), the control cell strains (PH3MT-VC and PH3MT-SC) formed 0.5 cm^3 tumors in 21 days (12/12 tumors formed per cell strain).

[5] = test system: HRas/c-Cbl; experiment: Co-immunoprecipitation of c-Cbl with HRas; assay type: cell-based, human; details: PH3MT-2A3 vs control cells, anti-HRas immunoprecipitation
Procedure: Generally, in experiments employing immunoprecipitation, whole cell lysates (250 μg) were precleared with an appropriate IgG antibody for 30 mins., then incubated with an antibody specific to HRas for 2 hrs., followed by incubation with protein-G for 1 hr. to overnight at 4° C. When an Hras-agarose conjugate was used (Ras-cCbl/CIN85), the lysates were incubated with the agarose conjugate for 3 hrs. to overnight. The immunoprecipitated fraction was washed several times with lysis buffer and assayed by Western blotting. Experiments were generally conducted in replicate, e.g., experiments were repeated 3 to 4 times for those examining Ras-Spry2 and Ras-c-Cbl interactions, and two times for those examining the Ras-CIN85 interaction.

[6] = test system: Rac1; experiment: Rac1 activation assay (PAK-CRIB pull-down); assay type: cell-based, human; details: PH3MT-SC (endogenous Spry2) vs PH3MT-2A3
Procedure: Pull-down assays were performed using whole cell lysates (2 mg). The lysates were pulled down with PAK-Cdc42/Rac1 interacting region (CRIB)-conjugated beads from Cytoskeleton (Denver, Colo.) using methods provided by the manufacturer. […] These experiments were repeated 3 times in H-Ras-transformed cells and twice in immortalized fibroblasts.
To determine whether Spry2 plays a role in the activation of Rac1, a Rac1 activation assay was carried out to determine the level of activated Rac1 in control HRas-transformed cells (PH3MT-SC) and in HRas-transformed cells with down regulated Spry2 (PH3MT-2A3).

[7] = test system: PH3MT cells; experiment: Stress fiber staining (phalloidin); assay type: cell-based, human; details: PH3MT-2A3 vs PH3MT-SC
Procedure: Stress fibers were detected with Alexa-fluor 488 conjugated phalloidin stain from Invitrogen (Carlsbad, Calif.), which was used according to the manufacturer's instructions. Briefly, cells at log phase were fixed in 10% normal buffered formalin solution for 10 mins. The fixed cells were washed twice in phosphate buffered saline (PBS), and then treated with 0.1 Triton X-100 in PBS for 3-5 mins. at room temperature. Subsequently, the cells were incubated with blocking solution (1% BSA in PBS) for 20 mins. at room temperature. Finally, the cells were incubated with phalloidin stain for 30 mins. and analyzed by fluorescent microscopy.
One function of Rac1 is to inhibit stress fiber formation (Burridge et al. (2004) Cell 116(2): 167-179). […] This is consistent with the lower level of Rac1 activation in these cells (FIG. 12B). Accordingly, one assay that can be used to analyze the effects of a compound that affects Spry2 expression or activity is to assay stress fiber formation in the presence and absence or a compound in a cell that can express Rac1.

[8] = test system: MDM2; experiment: MDM2 level and Ser166 phosphorylation, Western blot; assay type: cell-based, human; details: PH3MT-2A3 vs PH3MT-SC
Procedure: (§1) Whole cell lysates were prepared as described in Lou et al. ((2005) Cancer Res. 65:1007-1017). Protein concentration was quantified with Coomasie protein reagent from Pierce (Rockford, Ill.). Whole cell lysates (50 μg) were separated by SDS-PAGE. The electrophoresed proteins were transferred to a polyvinylidene fluoride membrane (Millipore, Billerca, Mass.), and immunoblotted using standard techniques. Antibodies against pp 85, p85, c-Cbl, Mdm2, p53 and H-Ras were purchased form Santa Cruz (Santa Cruz, Calif.); Spry2 from Calbiochem (San Diego, Calif.); pAkt and Akt from Cell Signaling (Danver, Mass.) and Ku80 from Serotec (Raleigh, N.C.). Ku80 protein was used as a loading control. Label signals were detected with the SuperSignal reagent (Pierce, Rockford, Ill.).
(§2) The MDM2/p53 pathway plays a critical role in UV-induced apoptosis (Lakin et al. (1999) Oncogene 18(53):7644-7655). Akt phosphorylates MDM2 on serine residue 166, resulting in the stabilization of MDM2 (Ogawara et al. (2002) J. Biol. Chem., 277(24):21843-21850). This enhances the ubiquitination of p53 by MDM2, which is followed by degradation of the p53. […] To test this proposal, the amount of MDM2 phosphorylated at Ser166 was determined in a cell strain with down regulated Spry2 (PH3MT-2A3) and in a control cell strain (PH3MT-SC). […]

[9] = test system: p53; experiment: p53 level, Western blot; assay type: cell-based, human; details: PH3MT-2A3 vs PH3MT-SC
Procedure: as §1, §2

COc1cc2ncnc(Nc3cccc(Cl)c3)c2cc1OC [AG1478]
ability of cells to grow in medium with reduced serum ([1]; PH3MT cells, 0.1% serum, AG1478 6 μM): decrease in the ability of H-Ras-transformed cells to grow in medium with reduced serum | decrease in growth compared with effect on MSU-1.1 cells ([1]; PH3MT vs MSU-1.1, AG1478 6 μM, p<0.001): significantly greater than the corresponding effect of the same inhibitor on the MSU-1.1 cells | number of cells undergoing apoptosis in response to UV radiation [2]: increased the number of Ras-transformed cells undergoing apoptosis

B1: Spry2-shRNA-2: Sprouty2-specific shRNA construct targeting position 399 of the Spry2 coding region; PH3MT-2A3 and PH3MT-2B9 cell strains were derived with it (nucleic acid)
chain: GATCCCCGAGACTGCTAGGATCATCCTTCAAGAGAGGAGTGATCCTAGCAGCTCTTTTTGGAAA
EGF-induced ERK activation [3]: decreased levels of ERK activation | Tumor incidence (ratio of tumors formed to sites injected) ([4]; cell strain PH3MT-2A3 (derived with Spry2-shRNA-2)): 0/12 | Tumor incidence (ratio of tumors formed to sites injected) ([4]; cell strain PH3MT-2B9 (derived with Spry2-shRNA-2)): 0/12 | binding of endogenous c-Cbl to HRas [5]: abolished | level of active Rac1 [6]: significantly higher level of active Rac1, compared to cell strain with down-regulated Spry2 expression | stress fiber formation [7]: more pronounced stress fibers | level of MDM2 following UV treatment [8]: decrease in the level of MDM2 following UV treatment | level of p53 following UV treatment [9]: higher

B2: Spry2-shRNA-5: Sprouty2-specific shRNA construct targeting position 492 of the Spry2 coding region; PH3MT-5A3 cell strain was derived with it (nucleic acid)
chain: GATCCCCGCCACTGAGCAAGGAAGATTTCAAGAGAATCTTCCTTGCTCAGTGGCTTTTTGGAAA
Tumor incidence (ratio of tumors formed to sites injected) ([4]; cell strain PH3MT-5A3 (derived with Spry2-shRNA-5)): 0/12
